From patent publication US20110183902A1 come the findings set out here.

For the assay, the target named is mouse GCG-R (in pancreatic islets of mice) (mouse) (UniProt Q61606). Put plainly: cell-based or functional assay.
mouse GCG-R (in pancreatic islets of mice) (mouse), sequence (Q61606 27-485): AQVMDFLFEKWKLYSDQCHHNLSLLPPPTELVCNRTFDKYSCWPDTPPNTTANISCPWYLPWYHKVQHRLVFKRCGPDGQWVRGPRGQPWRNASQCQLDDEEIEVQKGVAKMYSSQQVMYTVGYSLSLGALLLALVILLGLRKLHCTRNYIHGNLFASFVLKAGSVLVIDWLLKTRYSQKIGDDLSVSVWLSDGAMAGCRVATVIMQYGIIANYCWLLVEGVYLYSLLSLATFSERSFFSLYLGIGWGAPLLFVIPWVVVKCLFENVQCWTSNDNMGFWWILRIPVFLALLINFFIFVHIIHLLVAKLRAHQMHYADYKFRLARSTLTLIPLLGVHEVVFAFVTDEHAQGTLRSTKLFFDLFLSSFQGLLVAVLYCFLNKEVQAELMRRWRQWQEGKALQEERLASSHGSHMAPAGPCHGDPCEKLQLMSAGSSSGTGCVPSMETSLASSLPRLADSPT

Take “native OXM peptide (species not stated, Example 11)”: the fold-increase in fractional GSIS, GCG-R-/- islets relative to WT is 32 % reduction.
